T1: B3GNT2 (Homo sapiens, UniProt Q9NY97)
T1 construct: The respective ORFs of candidate genes [CD274 (NM_014143), MCL1 (NM_021960), JUNB (NM_002229), and B3GNT2 (NM_006577)] were synthesized; expressed in transfected cells; host or cells: A375 melanoma cells (lentiviral ORF overexpression)
T1 sequence (Q9NY97 1-397): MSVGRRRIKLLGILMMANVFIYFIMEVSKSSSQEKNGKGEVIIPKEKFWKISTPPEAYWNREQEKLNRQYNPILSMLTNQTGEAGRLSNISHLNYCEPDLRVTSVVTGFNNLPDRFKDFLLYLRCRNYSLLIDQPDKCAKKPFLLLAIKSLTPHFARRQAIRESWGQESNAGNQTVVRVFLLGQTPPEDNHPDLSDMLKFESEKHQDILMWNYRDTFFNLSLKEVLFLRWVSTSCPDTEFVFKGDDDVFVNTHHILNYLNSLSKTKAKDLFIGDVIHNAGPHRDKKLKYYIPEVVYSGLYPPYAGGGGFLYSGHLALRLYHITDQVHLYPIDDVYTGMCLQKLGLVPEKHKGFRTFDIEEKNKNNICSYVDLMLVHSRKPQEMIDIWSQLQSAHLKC


Molecular target: T1, B3GNT2
Assay: Co-IP of FLAG-tagged B3GNT2 followed by mass spectrometry
Assay type: cell-based
Design: C-term IgG / C-term flag: unit not given here
Details: mass spectrometry count, unit not given; for C-term flag / N-term FLAG: Co-IP with FLAG antibody; for C-term flag / C-term IgG: C-terminally FLAG-tagged B3GNT2; for N-term FLAG / N-term IgG: N-terminally FLAG-tagged B3GNT2; for C-term IgG / N-term IgG: Co-IP with IgG control antibody
Method in brief: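 FLAG-tagged B3GNT2 immunoprecipitated from cell lysate (HEPES, 1% Triton X-100, 150 mM NaCl) with anti-FLAG versus […], overnight at 4° C, then captured on Protein A/G magnetic beads for 4 h. Two biological replicates per condition. Peptides fractionated and analyzed by nano-LC on an Orbitrap Elite in data-dependent mode.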

C-term flag	N-term FLAG	C-term IgG	N-term IgG	Molecule
9	0	0	0	ATAD3A (protein) SWLFGINKGPKGEGAGPPPPLPPAQPGAEGGGDRGLGDRPAPKDKWSNFDPTGLERAAKAARELEHSRYAKDALNLAQMQEQTLQLEQQSKLKEYEAAVEQLKSEQIRAQAEERRKTLSEETRQHQARAQYQDKLARQRYEDQLKQQQLLNEENLRKQEESVQKQEAMRRATVEREMELRHKNEMLRVEAEARARAKAERENADIIREQIRLKAAEHRQTVLESIRTAGTLFGEGFRAFVTDWDKVTATVAGLTLLAVGVYSAKNATLVAGRFIEARLGKPSLVRETSRITVLEALRHPIQVSRRLLSRPQDALEGVVLSPSLEARVRDIAIATRNTKKNRSLYRNILMYGPPGTGKTLFAKKLALHSGMDYAIMTGGDVAPMGREGVTAMHKLFDWANTSRRGLLLFVDEADAFLRKRATEKISEDLRATLNAFLYRTGQHSNKFMLVLASNQPEQFDWAINDRINEMVHFDLPGQEERERLVRMYFDKYVLKPATEGKQRLKLAQFDYGRKCSEVARLTEGMSGREIAQLAVSWQATAYASEDGVLTEAMMDTRVQDAVQQHQQKMCWLKAEGPGRGDEPSPS
9	0	0	0	RCN1 (protein) KPTVRKERVVRPDSELGERPPEDNQSFQYDHEAFLGKEDSKTFDQLTPDESKERLGKIVDRIDNDGDGFVTTEELKTWIKRVQKRYIFDNVAKVWKDYDRDKDDKISWEEYKQATYGYYLGNPAEFHDSSDHHTFKKMLPRDERRFKAADLNGDLTATREEFTAFLHPEEFEHMKEIVVLETLEDIDKNGDGFVDQDEYIADMFSHEENGPEPDWVLSEREQFNEFRDLNKDGKLDKDEIRHWILPQDYDHAQAEARHLVYESDKNKDEKLTKEEILENWNMFVGSQATNYGEDLTKNHDEL
0	2	0	0	PSMC2 (protein) PDYLGADQRKTKEDEKDDKPIRALDEGDIALLKTYGQSTYSRQIKQVEDDIQQLLKKINELTGIKESDTGLAPPALWDLAADKQTLQSEQPLQVARCTKIINADSEDPKYIINVKQFAKFVVDLSDQVAPTDIEEGMRVGVDRNKYQIHIPLPPKIDPTVTMMQVEEKPDVTYSDVGGCKEQIEKLREVVETPLLHPERFVNLGIEPPKGVLLFGPPGTGKTLCARAVANRTDACFIRVIGSELVQKYVGEGARMVRELFEMARTKKACLIFFDEIDAIGGARFDDGAGGDNEVQRTMLELINQLDGFDPRGNIKVLMATNRPDTLDPALMRPGRLDRKIEFSLPDLEGRTHIFKIHARSMSVERDIRFELLARLCPNSTGAEIRSVCTEAGMFAIRARRKIATEKDFLEAVNKVIKSYAKFSATPRYMTYN
5	5	0	0	ACSL3 (protein) MNNHVSSKPSTMKLKHTINPILLYFIHFLISLYTILTYIPFYFFSESRQEKSNRIKAKPVNSKPDSAYRSVNSLDGLASVLYPGCDTLDKVFTYAKNKFKNKRLLGTREVLNEEDEVQPNGKIFKKVILGQYNWLSYEDVFVRAFNFGNGLQMLGQKPKTNIAIFCETRAEWMIAAQACFMYNFQLVTLYATLGGPAIVHALNETEVTNIITSKELLQTKLKDIVSLVPRLRHIITVDGKPPTWSEFPKGIIVHTMAAVEALGAKASMENQPHSKPLPSDIAVIMYTSGSTGLPKGVMISHSNIIAGITGMAERIPELGEEDVYIGYLPLAHVLELSAELVCLSHGCRIGYSSPQTLADQSSKIKKGSKGDTSMLKPTLMAAVPEIMDRIYKNVMNKVSEMSSFQRNLFILAYNYKMEQISKGRNTPLCDSFVFRKVRSLLGGNIRLLLCGGAPLSATTQRFMNICFCCPVGQGYGLTESAGAGTISEVWDYNTGRVGAPLVCCEIKLKNWEEGGYFNTDKPHPRGEILIGGQSVTMGYYKNEAKTKADFFEDENGQRWLCTGDIGEFEPDGCLKIIDRKKDLVKLQAGEYVSLGKVEAALKNLPLVDNICAYANSYHSYVIGFVVPNQKELTELARKKGLKGTWEELCNSCEMENEVLKVLSEAAISASLEKFEIPVKIRLSPEPWTPETGLVTDAFKLKRKELKTHYQADIERMYGRK
2	0	0	0	SLC25A22 (protein) MADKQISLPAKLINGGIAGLIGVTCVFPIDLAKTRLQNQQNGQRVYTSMSDCLIKTVRSEGYFGMYRGAAVNLTLVTPEKAIKLAANDFFRHQLSKDGQKLTLLKEMLAGCGAGTCQVIVTTPMEMLKIQLQDAGRIAAQRKILAAQGQLSAQGGAQPSVEAPAAPRPTATQLTRDLLRSRGIAGLYKGLGATLLRDVPFSVVYFPLFANLNQLGRPASEEKSPFYVSFLAGCVAGSAAAVAVNPCDVVKTRLQSLQRGVNEDTYSGILDCARKILRHEGPSAFLKGAYCRALVIAPLFGIAQVVYFLGIAESLLGLLQDPQA
2	0	0	0	DNAJA3 (protein) GVSLTGTKHNPFICTASFHTSAPLAKEDYYQILGVPRNASQKEIKKAYYQLAKKYHPDTNKDDPKAKEKFSQLAEAYEVLSDEVKRKQYDAYGSAGFDPGASGSQHSYWKGGPTVDPEELFRKIFGEFSSSSFGDFQTVFDQPQEYFMELTFNQAAKGVNKEFTVNIMDTCERCNGKGNEPGTKVQHCHYCGGSGMETINTGPFVMRSTCRRCGGRGSIIISPCVVCRGAGQAKQKKRVMIPVPAGVEDGQTVRMPVGKREIFITFRVQKSPVFRRDGADIHSDLFISIAQALLGGTARAQGLYETINVTIPPGTQTDQKIRMGGKGIPRINSYGYGDHYIHIKIRVPKRLTSRQQSLILSYAEDETDVEGTVNGVTLTSSGKRSTGN
2	0	0	0	IFI16 (protein) MGKKYKNIVLLKGLEVINDYHFRMVKSLLSNDLKLNLKMREEYDKIQIADLMEEKFRGDAGLGKLIKIFEDIPTLEDLAETLKKEKLKVKGPALSRKRKKEVDATSPAPSTSSTVKTEGAEATPGAQKRKKSTKEKAGPKGSKVSEEQTQPPSPAGAGMSTAMGRSPSPKTSLSAPPNSSSTENPKTVAKCQVTPRRNVLQKRPVIVKVLSTTKPFEYETPEMEKKIMFHATVATQTQFFHVKVLNTSLKEKFNGKKIIIISDYLEYDSLLEVNEESTVSEAGPNQTFEVPNKIINRAKETLKIDILHKQASGNIVYGVFMLHKKTVNQKTTIYEIQDDRGKMDVVGTGQCHNIPCEEGDKLQLFCFRLRKKNQMSKLISEMHSFIQIKKKTNPRNNDPKSMKLPQEQRQLPYPSEASTTFPESHLRTPQMPPTTPSSSFFTKKSEDTISKMNDFMRMQILKEGSHFPGPFMTSIGPAESHPHTPQMPPSTPSSSFLTTLKPRLKTEPEEVSIEDSAQSDLKEVMVLNATESFVYEPKEQKKMFHATVATENEVFRVKVFNIDLKEKFTPKKIIAIANYVCRNGFLEVYPFTLVADVNADRNMEIPKGLIRSASVTPKINQLCSQTKGSFVNGVFEVHKKNVRGEFTYYEIQDNTGKMEVVVHGRLTTINCEEGDKLKLTCFELAPKSGNTGELRSVIHSHIKVIKTRKNKKDILNPDSSMETSPDFFF
5	4	0	0	PGAM5 (protein) MAFRQALQLAACGLAGGSAAVLFSAVAVGKPRAGGDAEPRPAEPPAWAGGARPGPGVWDPNWDRREPLSLINVRKRNVESGEEELASKLDHYKAKATRHIFLIRHSQYHVDGSLEKDRTLTPLGREQAELTGLRLASLGLKFNKIVHSSMTRAIETTDIISRHLPGVCKVSTDLLREGAPIEPDPPVSHWKPEAVQYYEDGARIEAAFRNYIHRADARQEEDSYEIFICHANVIRYIVCRALQFPPEGWLRLSLNNGSITHLVIRPNGRVALRTLGDTGFMPPDKITRS
63	76	14	8	TUBA1C (protein, UniProt Q9BQE3 1-449, looked up) Tubulin alpha-1C chain: MRECISIHVGQAGVQIGNACWELYCLEHGIQPDGQMPSDKTIGGGDDSFNTFFSETGAGKHVPRAVFVDLEPTVIDEVRTGTYRQLFHPEQLITGKEDAANNYARGHYTIGKEIIDLVLDRIRKLADQCTGLQGFLVFHSFGGGTGSGFTSLLMERLSVDYGKKSKLEFSIYPAPQVSTAVVEPYNSILTTHTTLEHSDCAFMVDNEAIYDICRRNLDIERPTYTNLNRLISQIVSSITASLRFDGALNVDLTEFQTNLVPYPRIHFPLATYAPVISAEKAYHEQLTVAEITNACFEPANQMVKCDPRHGKYMACCLLYRGDVVPKDVNAAIATIKTKRTIQFVDWCPTGFKVGINYQPPTVVPGGDLAKVQRAVCMLSNTTAVAEAWARLDHKFDLMYAKRAFVHWYVGEGMEEGEFSEAREDMAALEKDYEEVGADSADGEDEGEEY
